Measurements as given in PMC3119658, “The Naturally Processed CD95L Elicits a c-Yes/Calcium/PI3K-Driven Cell Migration Pathway” (PLoS Biology, 2011).

Assays:
[1] = target: Ig-CD95L (extracellular region of CD95L fused to a dimerization domain (Ig) of the LIF receptor gp190) (UniProt P48023); assay: SEC; gel filtration analysis, unpublished data
[2] = target: the molecule itself; assay: SEC; size exclusion on S-200-HR Sephacryl columns; fractions harvested and cl-CD95L dosed by ELISA

Chain of Ig-CD95L (extracellular region of CD95L fused to a dimerization domain (Ig) of the LIF receptor gp190) (from UniProt P48023 105-281) (ligand) (P48023 whole entry, the tested form may be a part): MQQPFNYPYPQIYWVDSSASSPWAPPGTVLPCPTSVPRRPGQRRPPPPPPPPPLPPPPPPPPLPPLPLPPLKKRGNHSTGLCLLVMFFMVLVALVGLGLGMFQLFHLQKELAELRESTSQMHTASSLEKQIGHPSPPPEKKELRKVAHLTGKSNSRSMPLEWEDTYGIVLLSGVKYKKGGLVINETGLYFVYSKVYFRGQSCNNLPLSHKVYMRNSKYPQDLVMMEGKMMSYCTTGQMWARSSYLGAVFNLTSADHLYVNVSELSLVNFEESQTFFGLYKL

| Molecule | stoichiometry N [1] | stoichiometry N [2] |
| --- | --- | --- |
| Ig-CD95L (extracellular region of CD95L fused to a dimerization domain (Ig) of the LIF receptor gp190) (from UniProt P48023 105-281) (ligand) | 12 |  |
| metalloprotease-cleaved CD95L (ligand, UniProt P48023 127-281, looked up, In the functional row the CD95L is the soluble ligand in sera of SLE patients, not the 293-made preparation; also called cl-CD95L; naturally processed CD95L; source: 293 cells transfected with wild type CD95L cDNA; exosome-free supernatant, concentrated (10 kDa cut-off) and dialyzed against PBS) LEKQIGHPSPPPEKKELRKVAHLTGKSNSRSMPLEWEDTYGIVLLSGVKYKKGGLVINETGLYFVYSKVYFRGQSCNNLPLSHKVYMRNSKYPQDLVMMEGKMMSYCTTGQMWARSSYLGAVFNLTSADHLYVNVSELSLVNFEESQTFFGLYKL |  | 3 |
